Reference: the supplement of paper PMC10065799, “High-throughput profiling of sequence recognition by tyrosine kinases and SH2 domains using bacterial peptide display” (eLife, 2023)

Key:
AncSZ = assay: phosphorylation enrichment, bacterial display (enrichment ratio); higher = better substrate or ligand; peptides without Tyr show the background
EPHB1 = EPHB1 (UniProt P54762); assay: as above
EPHB2 = EPHB2 (UniProt P29323); assay: as above
FGFR1 = FGFR1 (UniProt P11362); assay: as above
FGFR3 = FGFR3 (UniProt P22607); assay: as above
Chain of FGFR3 (P22607 whole entry, looked up): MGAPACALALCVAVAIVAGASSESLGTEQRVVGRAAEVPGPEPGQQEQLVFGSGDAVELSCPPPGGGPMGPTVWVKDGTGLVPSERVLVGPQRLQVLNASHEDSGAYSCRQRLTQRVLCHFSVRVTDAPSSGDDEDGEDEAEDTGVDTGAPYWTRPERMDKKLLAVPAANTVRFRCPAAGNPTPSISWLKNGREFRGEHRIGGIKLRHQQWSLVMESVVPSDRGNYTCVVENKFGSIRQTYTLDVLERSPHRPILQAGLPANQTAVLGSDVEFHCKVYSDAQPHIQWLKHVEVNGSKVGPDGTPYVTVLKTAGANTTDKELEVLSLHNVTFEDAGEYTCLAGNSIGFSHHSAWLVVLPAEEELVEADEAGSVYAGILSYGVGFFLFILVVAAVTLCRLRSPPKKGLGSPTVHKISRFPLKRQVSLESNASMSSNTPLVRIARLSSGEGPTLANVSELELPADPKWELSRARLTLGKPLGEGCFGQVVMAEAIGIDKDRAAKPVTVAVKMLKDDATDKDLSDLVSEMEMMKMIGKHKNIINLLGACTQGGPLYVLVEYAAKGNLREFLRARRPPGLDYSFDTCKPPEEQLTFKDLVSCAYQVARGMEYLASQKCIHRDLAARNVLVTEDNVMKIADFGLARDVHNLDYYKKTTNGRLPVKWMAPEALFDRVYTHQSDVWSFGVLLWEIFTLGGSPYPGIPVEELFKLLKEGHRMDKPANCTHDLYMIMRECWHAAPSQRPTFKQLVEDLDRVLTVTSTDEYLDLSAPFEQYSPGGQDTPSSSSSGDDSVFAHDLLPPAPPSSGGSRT

Fer (mouse) = assay: as above
Fes = Fes (UniProt P07332); assay: as above
Fyn = Fyn (UniProt P06241); assay: as above
Chain of Fyn (P06241 whole entry, looked up): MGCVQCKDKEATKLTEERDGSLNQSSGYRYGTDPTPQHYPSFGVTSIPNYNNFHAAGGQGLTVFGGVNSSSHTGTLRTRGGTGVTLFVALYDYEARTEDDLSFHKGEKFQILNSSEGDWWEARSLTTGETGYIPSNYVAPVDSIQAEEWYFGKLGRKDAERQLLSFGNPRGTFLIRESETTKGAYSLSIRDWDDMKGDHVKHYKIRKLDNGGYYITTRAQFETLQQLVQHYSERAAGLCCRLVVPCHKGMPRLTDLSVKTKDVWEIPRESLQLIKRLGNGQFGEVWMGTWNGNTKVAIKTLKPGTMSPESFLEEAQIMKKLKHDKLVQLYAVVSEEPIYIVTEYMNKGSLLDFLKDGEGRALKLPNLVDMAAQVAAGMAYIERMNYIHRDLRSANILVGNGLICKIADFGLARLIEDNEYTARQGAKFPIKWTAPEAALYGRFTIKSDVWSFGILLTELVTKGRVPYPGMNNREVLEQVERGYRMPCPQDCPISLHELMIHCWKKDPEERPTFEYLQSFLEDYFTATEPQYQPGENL

Hck = Hck (UniProt P08631); assay: as above
Chain of Hck (P08631 whole entry, looked up): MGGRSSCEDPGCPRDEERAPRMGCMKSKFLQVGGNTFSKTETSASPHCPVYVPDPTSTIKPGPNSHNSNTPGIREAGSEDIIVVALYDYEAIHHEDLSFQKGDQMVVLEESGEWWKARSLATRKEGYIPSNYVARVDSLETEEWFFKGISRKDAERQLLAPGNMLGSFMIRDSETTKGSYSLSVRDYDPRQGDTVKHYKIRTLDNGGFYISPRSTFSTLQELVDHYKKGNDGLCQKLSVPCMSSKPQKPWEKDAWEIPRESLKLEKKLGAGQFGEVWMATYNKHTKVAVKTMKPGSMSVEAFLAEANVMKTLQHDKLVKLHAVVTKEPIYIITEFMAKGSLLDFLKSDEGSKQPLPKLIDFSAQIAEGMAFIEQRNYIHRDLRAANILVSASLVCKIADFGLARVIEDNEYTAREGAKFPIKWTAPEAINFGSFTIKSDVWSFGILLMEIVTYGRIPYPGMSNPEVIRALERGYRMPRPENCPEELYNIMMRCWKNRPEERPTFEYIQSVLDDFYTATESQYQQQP

Jak2 = Jak2 (UniProt O60674); assay: as above
Chain of Jak2 (O60674 whole entry, looked up): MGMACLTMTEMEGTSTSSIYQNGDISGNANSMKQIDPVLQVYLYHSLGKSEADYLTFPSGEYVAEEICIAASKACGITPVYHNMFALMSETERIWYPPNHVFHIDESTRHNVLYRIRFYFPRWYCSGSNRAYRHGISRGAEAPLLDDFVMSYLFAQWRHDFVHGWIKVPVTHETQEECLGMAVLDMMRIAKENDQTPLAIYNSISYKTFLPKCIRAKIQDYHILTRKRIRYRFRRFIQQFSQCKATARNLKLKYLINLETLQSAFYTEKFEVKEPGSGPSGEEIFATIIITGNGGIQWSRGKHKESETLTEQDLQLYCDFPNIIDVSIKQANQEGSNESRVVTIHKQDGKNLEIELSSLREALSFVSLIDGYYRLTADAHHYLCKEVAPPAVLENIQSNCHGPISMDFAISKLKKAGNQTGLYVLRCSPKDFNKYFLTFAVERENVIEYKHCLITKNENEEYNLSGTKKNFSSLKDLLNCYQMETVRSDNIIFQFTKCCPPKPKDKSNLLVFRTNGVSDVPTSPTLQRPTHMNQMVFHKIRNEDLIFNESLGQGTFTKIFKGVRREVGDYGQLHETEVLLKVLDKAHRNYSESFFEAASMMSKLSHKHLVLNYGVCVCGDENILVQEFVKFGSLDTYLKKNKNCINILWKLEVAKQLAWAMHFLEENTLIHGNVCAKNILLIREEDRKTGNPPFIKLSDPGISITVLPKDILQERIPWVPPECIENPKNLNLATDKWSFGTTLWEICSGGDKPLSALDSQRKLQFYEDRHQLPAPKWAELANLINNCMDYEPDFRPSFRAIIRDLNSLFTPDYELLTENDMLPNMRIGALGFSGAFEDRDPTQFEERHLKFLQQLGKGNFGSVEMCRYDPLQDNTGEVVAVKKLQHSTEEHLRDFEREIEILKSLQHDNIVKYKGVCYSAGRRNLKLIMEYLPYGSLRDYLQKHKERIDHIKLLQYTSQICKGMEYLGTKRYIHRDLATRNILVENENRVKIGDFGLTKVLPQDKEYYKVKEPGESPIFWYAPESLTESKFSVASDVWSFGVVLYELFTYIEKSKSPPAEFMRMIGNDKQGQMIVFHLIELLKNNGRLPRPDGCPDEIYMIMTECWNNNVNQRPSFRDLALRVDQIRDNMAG

MERTK = MERTK (UniProt Q12866); assay: as above
Chain of MERTK (Q12866 whole entry, looked up): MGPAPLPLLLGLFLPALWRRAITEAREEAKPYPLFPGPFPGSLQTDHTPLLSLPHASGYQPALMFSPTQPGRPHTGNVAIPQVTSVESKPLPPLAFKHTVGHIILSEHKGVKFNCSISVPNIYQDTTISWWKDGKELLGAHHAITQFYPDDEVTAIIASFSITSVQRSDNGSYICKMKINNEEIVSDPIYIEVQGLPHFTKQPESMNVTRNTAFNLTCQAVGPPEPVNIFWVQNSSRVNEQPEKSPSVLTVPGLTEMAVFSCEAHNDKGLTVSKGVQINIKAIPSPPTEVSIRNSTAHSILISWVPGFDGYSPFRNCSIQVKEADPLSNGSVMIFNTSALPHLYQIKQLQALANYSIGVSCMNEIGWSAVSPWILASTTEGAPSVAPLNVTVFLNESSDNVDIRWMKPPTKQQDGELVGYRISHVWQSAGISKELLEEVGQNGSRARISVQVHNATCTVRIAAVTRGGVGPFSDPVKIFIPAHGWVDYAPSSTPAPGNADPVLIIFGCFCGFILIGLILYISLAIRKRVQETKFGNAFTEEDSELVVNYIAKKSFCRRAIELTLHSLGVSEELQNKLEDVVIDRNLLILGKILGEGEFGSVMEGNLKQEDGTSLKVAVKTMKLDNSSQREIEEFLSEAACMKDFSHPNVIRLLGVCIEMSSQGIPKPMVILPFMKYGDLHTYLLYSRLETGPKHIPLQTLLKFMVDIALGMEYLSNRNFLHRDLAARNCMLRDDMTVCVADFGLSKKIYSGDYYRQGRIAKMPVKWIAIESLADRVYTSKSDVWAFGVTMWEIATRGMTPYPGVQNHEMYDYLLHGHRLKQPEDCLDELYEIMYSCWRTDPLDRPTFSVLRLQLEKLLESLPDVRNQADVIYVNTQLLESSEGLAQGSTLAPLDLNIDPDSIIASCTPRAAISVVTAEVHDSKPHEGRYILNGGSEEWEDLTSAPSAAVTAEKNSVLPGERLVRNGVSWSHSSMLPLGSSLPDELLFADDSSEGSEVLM

c-Abl (mouse) = assay: as above
c-Src = assay: as above
Grb2 SH2 = Grb2 SH2 (UniProt P62993); assay: SH2 binding enrichment of the phosphorylated peptide, bacterial display (enrichment ratio); higher = better substrate or ligand; peptides without Tyr show the background
SHP2-C SH2 = assay: as above
c-Src SH2 = assay: as above
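Wherever SH2 binding enrichment of the phosphorylated peptide, bacterial display is given: peptide library displayed on the E. coli surface as eCPX fusions, selected cells deep-sequenced, score is each peptide's frequency after selection divided by its frequency in the input.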
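Wherever phosphorylation enrichment, bacterial display is given: 11-residue human phosphosite peptides and single-mutation variants displayed on the E. coli surface, counted by deep sequencing, each peptide's frequency after selection divided by its frequency in the unselected input library; frequency after pTyr selection over input frequency; kinase dosed for 20-30% of maximal phosphorylation in three min.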

Chain of EPHB2 (P29323 whole entry, looked up): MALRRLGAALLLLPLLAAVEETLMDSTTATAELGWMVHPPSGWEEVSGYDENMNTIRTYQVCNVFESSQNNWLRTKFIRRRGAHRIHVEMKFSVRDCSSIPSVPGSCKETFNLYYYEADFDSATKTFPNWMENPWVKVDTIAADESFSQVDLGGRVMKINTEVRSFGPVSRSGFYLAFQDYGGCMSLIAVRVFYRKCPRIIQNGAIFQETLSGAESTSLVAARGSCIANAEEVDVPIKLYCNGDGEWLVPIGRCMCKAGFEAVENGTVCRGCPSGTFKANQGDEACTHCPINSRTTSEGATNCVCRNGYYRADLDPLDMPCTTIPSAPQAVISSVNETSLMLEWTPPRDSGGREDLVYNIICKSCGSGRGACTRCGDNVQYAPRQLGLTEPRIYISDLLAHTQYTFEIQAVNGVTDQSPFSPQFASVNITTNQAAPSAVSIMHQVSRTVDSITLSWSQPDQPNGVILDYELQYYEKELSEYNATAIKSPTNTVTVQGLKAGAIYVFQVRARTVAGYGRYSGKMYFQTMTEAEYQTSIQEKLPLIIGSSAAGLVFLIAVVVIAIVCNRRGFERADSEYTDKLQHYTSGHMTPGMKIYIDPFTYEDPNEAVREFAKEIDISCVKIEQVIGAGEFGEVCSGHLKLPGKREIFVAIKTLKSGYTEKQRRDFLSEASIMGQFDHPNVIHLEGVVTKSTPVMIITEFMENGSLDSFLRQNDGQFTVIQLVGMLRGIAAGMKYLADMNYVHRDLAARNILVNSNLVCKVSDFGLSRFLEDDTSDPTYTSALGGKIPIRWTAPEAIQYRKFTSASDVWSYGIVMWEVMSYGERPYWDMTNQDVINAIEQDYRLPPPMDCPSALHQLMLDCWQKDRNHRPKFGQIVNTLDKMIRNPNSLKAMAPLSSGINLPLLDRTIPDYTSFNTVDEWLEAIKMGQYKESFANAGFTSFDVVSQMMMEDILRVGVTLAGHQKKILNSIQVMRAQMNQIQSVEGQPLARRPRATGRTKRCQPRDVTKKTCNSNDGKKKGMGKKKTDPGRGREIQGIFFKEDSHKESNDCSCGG

Sequence | phosphorylation enrichment (AncSZ) | phosphorylation enrichment (EPHB1) | phosphorylation enrichment (EPHB2) | phosphorylation enrichment (FGFR1) | phosphorylation enrichment (FGFR3) | phosphorylation enrichment (Fer (mouse)) | phosphorylation enrichment (Fes) | phosphorylation enrichment (Fyn) | phosphorylation enrichment (Hck) | phosphorylation enrichment (Jak2) | phosphorylation enrichment (MERTK) | phosphorylation enrichment (c-Abl (mouse)) | phosphorylation enrichment (c-Src) | SH2 binding enrichment (Grb2 SH2) | SH2 binding enrichment (SHP2-C SH2) | SH2 binding enrichment (c-Src SH2)
AAAAVYTFLPD [MYORG_Y36_M35V] | 1.48 | 3.68 | 2.45 | 12.4 | 10.6 | 1.85 | 1.2 | 8.32 | 6.52 | 0.979 | 9.47 | 1.12 | 7.02 | 0.882 | 0.79 | 1.92
AAFNKYDQERF [CDC73_Y293_R292K_YF] | 0.692 | 0.401 | 0.483 | 0.412 | 0.531 | 0.428 | 0.785 | 0.485 | 0.375 | 0.599 | 0.396 | 0.494 | 0.414 | 0.867 | 0.776 | 0.44
AALSAYAAQRP [PTPRN2_Y249] | 0.439 | 0.299 | 0.353 | 0.406 | 0.433 | 0.347 | 0.491 | 0.305 | 0.386 | 0.462 | 0.312 | 0.377 | 0.315 | 0.813 | 0.662 | 0.457
AASTDYFKRGD [PDHA1_Y242_YF] | 0.625 | 0.372 | 0.454 | 0.402 | 0.426 | 0.363 | 0.663 | 0.462 | 0.45 | 0.57 | 0.325 | 0.421 | 0.352 | 0.879 | 0.68 | 0.416
AATTAYSKPKR [MAP3K7_Y405] | 0.404 | 0.275 | 0.264 | 0.337 | 0.37 | 0.317 | 0.563 | 0.281 | 0.384 | 0.425 | 0.302 | 0.509 | 0.354 | 0.935 | 0.712 | 0.693
AAVPAYDKIQV [STXBP2_Y401_R405Q] | 0.92 | 0.793 | 0.417 | 0.66 | 0.666 | 5.58 | 1.43 | 0.612 | 1.09 | 1.06 | 0.688 | 0.96 | 0.593 | 0.759 | 0.546 | 6.48
ADDSFYTARSA [ZAP70_Y493_YF] | 0.822 | 0.597 | 0.534 | 0.55 | 0.904 | 0.451 | 0.993 | 0.711 | 1.01 | 0.877 | 0.681 | 0.561 | 0.707 | 0.883 | 1.55 | 0.419
ADFPDCKFRPR [SOX11_Y116_Y116C_YF] | 0.783 | 0.488 | 0.409 | 0.532 | 0.616 | 0.412 | 0.983 | 0.395 | 0.545 | 0.965 | 0.391 | 0.744 | 0.465 | 1.05 | 0.996 | 1.19
ADKSAYLMGPN [MYH7_Y386_L390P] | 0.636 | 0.386 | 0.391 | 0.473 | 0.545 | 0.371 | 0.637 | 0.544 | 0.508 | 0.7 | 0.408 | 0.441 | 0.631 | 0.766 | 0.729 | 0.482
ADLAKYICENR [ALB_Y287_Q292R] | 0.84 | 0.537 | 0.406 | 0.469 | 0.691 | 0.498 | 0.946 | 0.427 | 0.447 | 0.928 | 0.45 | 1.36 | 0.467 | 0.817 | 0.79 | 0.424
ADLTEYLSTHF [UQCRC1_Y219_YF] | 1.43 | 0.681 | 0.672 | 0.699 | 0.923 | 0.493 | 1.35 | 0.577 | 0.604 | 1.2 | 0.571 | 0.958 | 0.561 | 0.717 | 0.539 | 0.4
AEARMYGVLPW [PLP1_Y207_D203E] | 0.767 | 0.692 | 1.05 | 0.502 | 0.559 | 0.477 | 0.811 | 7.15 | 7.47 | 0.65 | 1.54 | 0.989 | 4.81 | 0.769 | 0.871 | 0.46
AEKPKYQINNI [TJP1_Y1602] | 0.541 | 0.366 | 0.802 | 0.383 | 0.427 | 0.368 | 0.682 | 0.341 | 0.366 | 0.704 | 0.349 | 0.548 | 0.363 | 0.906 | 0.766 | 0.508
AEMKRYAESSS [RAI14_Y869] | 0.607 | 0.45 | 0.394 | 0.467 | 0.441 | 0.372 | 0.778 | 0.471 | 0.403 | 0.582 | 0.336 | 0.483 | 0.382 | 0.875 | 0.903 | 0.448
AEMTGYVVTRW [MAPK13_Y182] | 1.17 | 0.636 | 0.586 | 0.526 | 0.834 | 0.499 | 1.3 | 0.468 | 0.467 | 1.34 | 0.372 | 0.895 | 0.486 | 0.845 | 0.586 | 0.47
AEYGLYAAMVR [VSX2_Y222_G223A] | 1.65 | 8.53 | 9.84 | 0.639 | 0.895 | 5.05 | 1.4 | 6.68 | 7.14 | 1.16 | 6.46 | 3.28 | 4.7 | 0.82 | 0.574 | 0.485
AFGEVYEGQES [ALK_Y1131_V1135E] | 1.32 | 0.526 | 0.622 | 0.485 | 0.645 | 0.478 | 1.05 | 0.598 | 0.629 | 1.14 | 0.438 | 0.842 | 0.75 | 0.842 | 0.677 | 0.557

Sequence | phosphorylation enrichment (AncSZ) | phosphorylation enrichment (EPHB1) | phosphorylation enrichment (EPHB2) | phosphorylation enrichment (FGFR1) | phosphorylation enrichment (FGFR3) | phosphorylation enrichment (Fer (mouse)) | phosphorylation enrichment (Fes) | phosphorylation enrichment (Fyn) | phosphorylation enrichment (Hck) | phosphorylation enrichment (Jak2) | phosphorylation enrichment (MERTK) | phosphorylation enrichment (c-Abl (mouse)) | phosphorylation enrichment (c-Src) | SH2 binding enrichment (Grb2 SH2) | SH2 binding enrichment (SHP2-C SH2) | SH2 binding enrichment (c-Src SH2)
AFGEVYEGQVS [ALK_Y1131] | 0.974 | 0.539 | 0.64 | 0.695 | 0.667 | 0.459 | 1.11 | 0.772 | 0.937 | 0.846 | 0.442 | 0.764 | 1.54 | 0.914 | 0.456 | 0.499
AFLLLCFNDTH [BMP15_Y235_Y235C] | 1.42 | 0.724 | 0.696 | 0.501 | 0.918 | 0.663 | 1.44 | 0.563 | 0.561 | 1.63 | 0.484 | 1.01 | 0.413 | 1.01 | 1 | 0.704
AGARMYGVLPW [PLP1_Y207_D203G] | 0.67 | 0.542 | 0.724 | 0.489 | 0.495 | 0.447 | 0.75 | 4.8 | 5.5 | 0.55 | 0.842 | 0.667 | 3.6 | 0.782 | 0.549 | 0.513
AGREIYESEKC [TTN_Y4424_D4427E] | 0.856 | 0.427 | 0.585 | 0.535 | 0.638 | 0.47 | 0.925 | 0.525 | 0.495 | 0.846 | 0.547 | 0.708 | 0.59 | 1.15 | 1.09 | 0.844
AGRTGYDNREI [BCL2_Y9] | 0.779 | 0.392 | 0.394 | 0.461 | 0.509 | 0.5 | 0.955 | 0.427 | 0.367 | 0.848 | 0.429 | 0.974 | 0.537 | 0.779 | 0.718 | 0.504
AGTILYHAHLG [ASS1_Y291_D296G] | 0.819 | 0.534 | 0.633 | 0.517 | 0.625 | 0.495 | 1.07 | 0.564 | 0.61 | 0.816 | 0.863 | 0.727 | 0.549 | 0.737 | 0.543 | 0.483
AHLLQYNHQVK [LGALS3_Y221_R224Q] | 0.706 | 0.503 | 0.505 | 0.579 | 0.545 | 0.583 | 0.9 | 0.706 | 0.508 | 0.517 | 0.521 | 0.474 | 0.459 | 0.631 | 0.401 | 0.503
AIYWRYSKFFD [SH3PXD2B_Y45_R43W] | 1.3 | 0.982 | 0.681 | 0.57 | 0.804 | 0.526 | 1.05 | 1.49 | 0.886 | 1.07 | 0.421 | 1.1 | 0.97 | 0.794 | 0.645 | 0.466
AKIDGYIISFR | 1.1 | 0.575 | 0.412 | 0.472 | 0.654 | 0.386 | 1.13 | 0.412 | 0.365 | 1.06 | 0.37 | 0.559 | 0.315 | 0.936 | 0.547 | 0.576
AKKKMYSCKTK [AGXT_Y231_R233C] | 1.01 | 0.62 | 0.578 | 0.588 | 1.64 | 0.613 | 1.19 | 0.417 | 0.537 | 2.73 | 0.529 | 1.95 | 0.474 | 1.44 | 1.59 | 1.2
ALEKTYNTFRS [B4GALNT2_Y538_YF] | 0.573 | 0.351 | 0.406 | 0.433 | 0.456 | 0.422 | 0.509 | 0.777 | 0.704 | 0.73 | 0.382 | 0.503 | 1.78 | 0.872 | 0.591 | 0.457
ALEKTYNTYRS [B4GALNT2_Y538] | 0.568 | 0.336 | 0.349 | 0.391 | 0.439 | 0.35 | 0.658 | 0.517 | 0.438 | 0.497 | 0.312 | 0.433 | 0.925 | 0.819 | 0.612 | 0.448
ALKKPYGVLYK [RPF2_Y59] | 0.643 | 0.544 | 0.4 | 0.455 | 0.516 | 0.5 | 0.775 | 0.503 | 0.675 | 0.72 | 0.397 | 0.675 | 0.707 | 1.54 | 2.38 | 1.38
ALRHYYKLNII [ETV6_Y402] | 0.968 | 0.579 | 0.533 | 1.3 | 1.36 | 0.693 | 1.28 | 0.506 | 0.527 | 1.3 | 0.522 | 0.839 | 0.427 | 1.54 | 1.42 | 1.35
ALVLQYLRVPL [F9_Y371] | 1.03 | 0.61 | 0.5 | 0.582 | 0.662 | 0.55 | 1.02 | 0.455 | 0.536 | 1.6 | 0.378 | 0.62 | 0.39 | 1.8 | 1.74 | 1.66
ANFTEYVATRW [CDKL5_Y171_YF] | 0.977 | 0.834 | 0.922 | 0.707 | 0.814 | 0.515 | 0.947 | 0.57 | 0.523 | 0.781 | 0.49 | 0.682 | 0.466 | 0.806 | 0.595 | 0.523
LSCVIYVILRK [PMP22_Y153_G150C] |  |  |  |  |  |  |  |  |  | 1.83 |  | 1.39 | 1.06 | 2.2 | 2.02 | 1.75
